{"source": "the DeepSol protein solubility set", "data": [{"test": "soluble on expression in E. coli; label from the status in PepcDB or PDB records", "values": [{"sequence": "MGSDKIHHHHHHMTYARKPVADAGIGVGIADDPASLSVLHKPGCAAAIWRRHIPSQAKTWLEGLDPSQLPTGRQMVRPDGVRHAVRDFCKRADTPLGDDLDWLQNDMSMLAEMFAQVMSARVLRLRLDAISTNACSRFHIDAVTARLVCTYRGSGTQYGISTDGRAPRRVFQVATGAPILLRGTLWPEDPPSGVLHRSPPIAGTGETRLVMVLDPIFDPDNGP", "soluble on expression in E. coli": "not soluble"}, {"sequence": "MGSDKIHHHHHHMVAIKNFSIKIKDKEPVFTLGEKLTQEQLDFFETHGYIHFKNFLNPETVPAVIKALEDVQEQWIAENREKVNGVPIKYGVDLDGKKIVQRFAFASLFSNVLHELLKDPRLKALYPLLQAKDERIGEFEKDGLVVNHYINSDASSFTKMGWHTDCLRDVFYGKKIMPMLNVGIHLDNYDPKNGGLRIIPGTHKQDLLNLLFRKKYYVSHKPDPDEIGFNITAGDLTVHDGRSWHRVERSPITGEASRRRVMYIPFIGGEYQPKDENSSTQLYQRLSKFVR", "soluble on expression in E. coli": "not soluble"}, {"sequence": "MGSDKIHHHHHHMVDSLKKPGFEEIRPGVKVPAKETLLTPRFYTTDFDEMARMDISVNEDELLAILEEFRTDYNRHHFVRDAEFEKSWDHIDGDTRRLFVEFLERSCTAEFSGFLLYKELGRRLKDKSPVLAECFNLMSRDEARHAGFLNKAMSDFNLSLDLGFLTKSRNYTFFKPKFIFYATYLSEKIGYWRYITIYRHLEAHPEDRIYPIFRFFENWCQDENRHGDFFDAIMKSQPQMLNDWKAKLWSRFFLLSVFATMYLNDIQRKDFYASIGLDARDYDIYVIKKTNETAGRVFPVILDVDSPEFYERLDICVENSEKLSAIASSNTPKFLQFFQKLPVLASTGWQLLRLYLMKPIDAVSAQGAAR", "soluble on expression in E. coli": "not soluble"}, {"sequence": "MGSDKIHHHHHHMVKVSIICTNYNKGSWIGEAIDSFLKQETSFPYEIIIVDDASTDHSVHIIKTYQKQYPDLIRAFFNQENQGITKTWSDICKKARGQYIARCDGDDYWIDPFKLQKQIDLLETSPESKWSNTDFDMVDSKGNIIHKDVLKNNIIPFMDSYEKMLALKGMTMASTWLVETKLMLEINDRINKDAVDDTFNIQLELFKKTKLAFLRDSTTVYRMDAESDSRSKDSEKLAQRFDRLLETQLEYIEKYPDSDYKKVLEYLLPKHNDFEKVLAQDGKNVWDNQQITIYLAKGDDQEFSEENCFQFPLQHSGNIQLTFPENIRKIRIDLSEIPSYYRQVSLVNTTVNTELLPTWTNAKVFGYSYYFIAPDPQMIYDLTAQEGQDFKLTYEWFNVDRPSQPDFLANHLVKELDQKKVELKMLSPYKYQYQKAVAERDLYLEQLNEMVVRYNSVTHSRRWTIPTKIINLFRRKK", "soluble on expression in E. coli": "not soluble"}, {"sequence": "MGSDKIHHHHHHMVLGGPMSLNRYFTGGLLCLLGCNPANAQTATIVLSATLLPACEAGSVGSGGAITFGTLDFGQYASLNNAISATSQQGAGSIRVRCVSGQTYAITLDGGLYGSVATRRMANIANTALTLTYNLYSDRPGGIVWDNTTGVAATGNGNDQWYPIYGLVPAQTTPVAGTYRDTVNVTISW", "soluble on expression in E. coli": "not soluble"}, {"sequence": "MGSDKIHHHHHHMVNKNLYTLLVCLLLAGCDLIDYHPYDVRISGETDVNAHNIEQIEAKCKGKTTIRFITMGDSQRWYDETEDFVKEVNKRDDIDFVIHGGDMSDFGLTKEFLWQRDIMNGLKVPYVVLIGNHDCLGTGAETYQAVFGPTNFSFIAGNVKFVCLNTNALEYDYSEPIPNFGFMEQELTDRADEFEKTVVSMHAHPFADVFNDNVAKPFQYYITQYPGLQFCTAAHNHGFDDRILFDDDVHYIVSDCMKSRSYLVFTITPEKYEYELVEY", "soluble on expression in E. coli": "not soluble"}, {"sequence": "MGSDKIHHHHHHMVPARHCHVAVFDQAIVALDIRRSRYFLYDAACARDFADHYLDFKPIDAPRALKPLIADRILVAESPAAARSRIADYRGWSFDAFDSGIWGSRVLGKRDAARFEWLPFWRIVRSAASLKMRGFHALAALDQLDARGAPARGDDASHTVERLLRASIWSPFRITCVQMSLALATHLRRQNVPAQLVIGVRPMPFVAHAWVEVDGRVCGDEPDLKKSYGEIYRTPRCDASAAPFGLAA", "soluble on expression in E. coli": "not soluble"}, {"sequence": "MGSDKIHHHHHHMVPHLITALNGPLLELEKKILDATPSIERWFRLEWQEHTPPFYCSVDLRNAGFKLAPVDTNLFPGGFNNLAPEMLPLAVQAAMAAIEKICPDAKNLLLIPERHTRNMFYLQNVARLSLIMRQAGLNVRLGSLSEEITEPTPIELPDGQTLVVEPLARLGTKDRRLGLKDFDPCSILLNNDLSAGIPPILENINEQYLLPPLHAGWSTRRKSSHFAAYDEVAKKFAKLIDIDQWMVNPYFARCSGVNFHERIGEEELADSVEAVLKKIAKKYREYGIKETPYVVVKADAGTYGMGIMTVRDPSEVKGLNRKERNKMSVVKEGLEVSDVIIQEGVHTFEKVNEAVAEPVVYMIDRYVVGGFYRVHTGRGNDENLNAPGMHFVPLAFAPNGIPDSHAKPGAAVPNRFYMYGVVARLALLAASIELEKTDPNPIL", "soluble on expression in E. coli": "not soluble"}, {"sequence": "MGSDKIHHHHHHMVQEIAQEIIRSARKKGTQDIYFVPKLDAYELHMRVGDERCKIGSYDFEKFAAVISHFKFVAGMNVGEKRRSQLGSCDYAYDHKIASLRLSTVGDYRGHESLVIRLLHDEEQDLHFWFQDIEELGKQYRQRGLYLFAGPVGSGKTTLMHELSKSLFKGQQVMSIEDPVEIKQDDMLQLQLNEAIGLTYENLIKLSLRHRPDLLIIGEIRDSETARAVVRASLTGATVFSTIHAKSIRGVYERLLELGVSEEELAVVLQGVCYQRLIGGGGIVDFASRDYQEHQAAKWNEQIDQLLKDGHITSLQAETEKISYS", "soluble on expression in E. coli": "not soluble"}, {"sequence": "MGSDKIHHHHHHMVSMTKLVELKNSEASAVVLPRHGAGLASFDFLWRGSRLPAFRPLITEPQHEHDLALYLLAPFSNRIGGGGFAWNGRRHDLRPNVEGEPCPLHGDAWQQHWTVMDQGRTHVTLQLLSRSIPPFAYDAEITWTLDGPSLSGALTLIHRGEDPMPYGGGFHPWLVRDSDTQLHARADGWWSEDSLHLPKRWHALVDNDSSGFGAPRSLPSNFFNTVYTGWHGRADIWWPGRGLALQIEAQAPLNRYIVYSPGAEADFFCFEPVSHDVNAHNAPSPLKHGLVELAEGESLHLSARFTATLR", "soluble on expression in E. coli": "not soluble"}, {"sequence": "MGSDKIHHHHHHMVSTIGIVSLSSGIIGEDFVKHEVDLGIQRLKDLGLNPIFLPHSLKGLDFIKDHPEARAEDLIHAFSDDSIDMILCAIGGDDTYRLLPYLFENDQLQKVIKQKIFLGFSDTTMNHLMLHKLGIKTFYGQSFLADICELDKEMLAYSLHYFKELIETGRISEIRPSDVWYEERTDFSPTALGTPRVSHTNTGFDLLQGSAQFEGKILGGCLESLYDIFDNSRYADSTELCQKYKLFPDLSDWEGKILLLETSEEKPKPEDFKKMLLTLKDTGIFAVINGLLVGKPMDETFHDDYKEALLDIIDSNIPIVYNLNVGHATPRAIVPFGVHAHVDAQEQVILFDYNK", "soluble on expression in E. coli": "not soluble"}, {"sequence": "MGSDKIHHHHHHMWDWIGKLDELRRSNQLAVLVTVTKSSGSTPRKHGAKMIVLPDGTFYGTVGGGTPEYYALEDARACFETMQSTTSSVPLKQRGEFPACGGTMEFYMEVINDNPVLHLFGAGHIGQSLCQILDGTPFRIHLIDEREEWINAPNLPGSVIRHQRHYSDFIEKAIWCDKRTFVAIQTFSGTLDQQVLEEVLPNPTRYVGMIGSKAKWAKVRSNLEEKGLDLSAVRCPIGHDNGGNSPREIAISIASQLLSTYYGRE", "soluble on expression in E. coli": "not soluble"}, {"sequence": "MGSDKIHHHHHHMWDYDRLFEIIEELVMHHSPSGAEAEINQLLMQRFAALGVEVWCDRADNIIAKIPGKNPDRAMSNDKPLLYERLRQRAYAITAHKDEIGAIVKSLGDEGRVEVRKLGGSFPWVYGEGVVDLLGDRETISGILSFGSRHVSHESPQKVQQEDTTVKWENAWIETKRTTDELEAAGVRPGTRMVIGKHRKHPIRLKDHIASYTLDNKASVAILLALAENLKQPVVDVYLVASAKEEVGAIGALFFTQNQPLDALIALEVCPLSEEYPIKDGESPILLSQDAYGIYDEGLNGQVRQSAKQLDIPVQLTILSQFGSDASIAMKFGHVARAACLAFPTQNTHGYEIAHLGAIANCIDLLKAFCETEF", "soluble on expression in E. coli": "not soluble"}, {"sequence": "MGSDKIHHHHHHMWGPPWMPDQDGNMTRESGYFQCTNRNKYSVAVDITTPEGQALIYEIAKTADVVIENYKTGSLAKYGLDYASLSELNPNIVYCSITGFGQDGPRAEEPGYDFIIQGMSGLMSITGEPDDVAGGGAQKVGVAVVDIQTGLYSTIAIQAALIARSHTGRGQYIDMSLLDVQVAALANQGMNYLASGKAPQRMGNQHPSIVPYQTFKAKDKEFIIACGNDKQFKDLCIAIGYPELLENEKFVRNQDRVKYRNELIPLLSEHFLRKTAKEWVDMIHALKVPVGVINSIEDALAEPQIVYRNLVVNIPHRLNENFQTIGSPIKLSDTPVEYHHAPPELGEHTAQILSRFKTAEELAALKEKGIIDGKIA", "soluble on expression in E. coli": "not soluble"}, {"sequence": "MGSDKIHHHHHHMWSHQSWQDSVYGHQTKATERLAHYAHIFNSVEGNTSFYATPAPQTVLNWHSATPDNFRFTFKLPQRITHQKQLQDCNQDLRDFFHIMAPLIEKTGIWKIQLPAHFGPEQLPVLARFLDHVPQGLTYGVEVRHFAFFAKGDAERTLNRLLIDKKVNRIIMDSRPVFALPPFNETIIDAHKKKPRVPVHPIATANNPVVRFIGQADGTLALLTQLGTTALPKDNDAFFTHWLKQLTLWLNEGREPYLFIHTPDNQTAPELAARLYRKLQLHIAEHIQLADIKLLEKKAEEKSAQMGLDW", "soluble on expression in E. coli": "not soluble"}, {"sequence": "MGSDKIHHHHHHMWYKNNSFRFTRRFFMRVRVSAVFEQAGEILCMKYIYGGKEVFALPGGGVDKDIPLQEAIVNEWKEELGIKVDIGDIILIGEAPAGKRHPQTLHVVFEAREIRGTPKVRSDATHSLDVAWVPLEKLSSLPLYPDVGKQLSASFSEEPRRSVAFISNCMERGYW", "soluble on expression in E. coli": "not soluble"}, {"sequence": "MGSDKIHHHHHHMYEDELIFLEKTASIDIFEYSEQGIKTILDSPKHYNHGLMIRAAKLSREGFYSLVKYNSSYMLLVPLAKDKGLILSPKIDSLNNSESSFSNIDFINHSTSLAELAYFLYTKESAPNWNRVIYNLNEISDPVKQVQPMKNLHAFHRYANKMVDYFAQLDDKKFKLYINKMKSCQVFGDTLTTSNVIRGEKDILIDIISKLTDRSEKEGLPFEKVVFIQSVSVQKIELQANILNFNGWLEEIPYAYFNELKKWRENLFIDKADKIERYLKLNSRENIKLKDISKELGISEQSLNTIFKKKYGMTTKKYLIELKIENDKELLTTTELKIHDISEYLSFIDESYFISTFNKSCGMTPSKYRQNYIDKLLNKKSV", "soluble on expression in E. coli": "not soluble"}, {"sequence": "MGSDKIHHHHHHMYIDGVFSGGGVKGIALAGAYEVLEEKGFRFKRVAGTSAGAIIAAFIASGYTSKEIHALIEEVDGEKLLDQRYSFLPLKMLQWVSIYWRLGLYKGDTIEKWIADLLRAKGIRVFGDLQKGSLRLIASDLTNGTMIVLPDDLARYGLNPDMFPVARAVRMSCSIPYFFEPIKLKTDTGTATVVDGGVLSNFPIWLFSKERKRPVIGVTLAPRERERPKKNIRNAFELFGALFETMKDAHDARHIASRYEQNIIFLPVDDVMATDFHLTQQKKLALIELGKRRTELFLKQWTY", "soluble on expression in E. coli": "not soluble"}, {"sequence": "MGSDKIHHHHHHMYNKFKLMAKIYLGPAGVPHSAKKKNTVEGIRTVKELGLNAMEVEFVQGVRMSKETAEETGQVARELGVRLSVHAPYFINLCSEEKEKIEASKQRILDTADRAELMGADAIAIHIAFYGKMTPEECYQNVKEGLEEVIDKAREMGIRNVKFGVETMAKETAFGTLDEVISISKELKGVIPYIDWAHTFARQGGEIDYGKIIDRLIKELGLTHINSHFESLVYRRGKYVDEHIPIDANAPPFEPLAKELLKRDISITLICESPELERDALKMKEVLERLGYRLE", "soluble on expression in E. coli": "not soluble"}, {"sequence": "MGSDKIHHHHHHMYNVQTYKEKISRFEEVCFNWELKRASIVLNKRFSSYNSSAKVLLDAGFSLYAAKIEVCRELNNGEELERQYTYRSIAEGTLSEKDFKYIWEQCMSGSGNQTSILTIDEHFYSVQTELDKGWEKSCIVFYDKNEPIGMSIPHIETGTESEGRLFYFGVMLYYRGKGIASRLHLQSLHMLKEMGATYYIGSTHTSNEKMQRIFWRNNCSLKTEIELYYKIFNEG", "soluble on expression in E. coli": "not soluble"}]}]}
